In the Human Domainome abundance scans (Beltran et al. 2025):

B1: Ras GTPase-activating protein 1, residues 281 to 341; numbered along this chain, P20936 (parent)
chain: RRRVRAILPYTKVPDTDEISFLKGDMFIVHNELEDGWMWVTNLRTDEQGLIVEDLVEEVGR

Variants of: B1
Assay: abundance fitness (aPCA) (normalised: wild type 0, dead -1); higher = more abundant; growth selection in yeast, the domain comes from the species named
Conditions: Homo sapiens

Abundance fitness, by site and new letter:
N31: R 0.073, L -0.174
G36: Y -0.874, L -0.6, H -0.161, M -0.928, D -0.613, P -0.597, I -0.88, F -0.951, C -0.664, Q -0.557, N -0.149, V -0.876, K -0.344, W -0.867, R -0.188
E32: G -0.299, D -0.026, V -0.018, M 0.017, F -0.054, K 0.01, N -0.07, Y -0.03, R -0.053, T 0.003, P -0.35, I 0.031, A -0.068, W -0.103, C -0.058, S -0.019
H30: M -0.151, Q -0.033, S -0.318, V -0.285, T -0.261, W -0.153, N -0.135, Y -0.397, R -0.255, P -0.789
T41: Y -0.312, C -0.425, L -0.357, V -0.289, M -0.362, R -0.102, S -0.19, F -0.88, H -0.078, D -0.862, P -0.973, A -0.633, K -0.143, I -0.594, N -0.576, G -0.941, W -0.378
R44: P -0.9, V -0.708, M -0.287, Y -0.523, S -0.207, T -0.319, D -0.885, K -0.648, L -0.905, F -0.637, Q -0.314, I -0.774, E -0.442, C -0.47, H -0.542, N -0.224
L50: F -0.126, D -0.958, E -0.395, A -0.002
D35: C -0.163, R -0.035, N -0.025, T -0.098, F -0.182, A -0.024, V -0.392, Y -0.268, H -0.038, P -0.126, G 0.015, M -0.142, I -0.487, W -0.337, K -0.036, E -0.047, S -0.103, Q 0.007, L -0.207
L43: H -0.612, Y -0.35, W -0.748, K -0.206, R -0.437, T -0.038, N -0.388, S -0.19, D -0.422, P -0.784, A -0.229, G -0.694, V -0.044, I -0.012, F -0.425, M 0.005, E -0.026, C 0.007
W37: P -0.795, K 0.121, F -0.004, S 0.004, M 0.006, G -0.049, Q 0.073, R 0.088, L -0.003, A -0.014, T 0.037, H 0.044, I -0.104, E -0.176, C -0.016, Y 0.024
E34: R 0.065, P 0.03, S -0.01, T -0.106, M -0.159, K -0.026, I -0.258, N -0.004, F -0.238, A 0.023, L -0.182, D -0.033, Y -0.188, Q 0.074, W -0.28, G -0.035, V -0.089
E47: K -0.23, V -0.375, A -0.254, T -0.263, C -0.192, F -0.841, M -0.257, N -0.428, H -0.253, S -0.348, W -0.94, Y -0.77, Q -0.135, P -0.993, L -0.417, D -0.104, G -0.684
